Experimental data reported in patent publication US20150086555A1.

B1: TCN-563 (5237_B21) (antibody, V domains shown)
VH: QVQLAQSGAEVKRPGSSVKVSCTASGGIFRKNAISWVRQAPGQGLEWMGGIIAVFNTANYAQKFQGRVKITADESGNTAYMELSSLRSDDTAVYYCASHPKYFYGSGSYPDFWGQGTLVTVSS
VL: QSALTQPRSVSGSPGQSVTISCTGSSSDVGASNSVSWYQQHPGKAPKLVIYDVTERPSGVPHRFSGSKSGNTASLTVSGLQPEDEADYFCCAYGGKYLVVFGGGTKVTVL
B2: TCN-536 (5095_N01) (antibody, V domains shown)
VH: QVQLQQWGAGLLKPSETLSLTCAVYGGSFSVSGYYWSWIRQPPGRGLEWIGEISHGGSTNYNPSLKSRVTISVDTTKNQFSLRLSSVTAADTAVYYCARGTDPDTEVYCRVGNCAAFDYWGQGSLVTVSS
VL: EIILAQSPGTLSLSPGERATLSCRASQFVSTRSLAWYQQRPGQAPRLLIYGASSRATGIPDRFSGSGSGTDFTLTISRLEPEDFAVYYCQHYGYSPRYAFGQGSKVEIK
B3: TCN-530 (5248_H10a) (antibody, V domains shown)
VH: QVQLVQSGAEVRKPGSSVKVSCKASGGPFMSYAIGWVRQAPGQGLEWMGGINPVFGRPHYAQKFQGRVTIATDDSTKTSYMELSSLTSEDTGMYYCASRYSRSSPGTFESWGQGTLVTVSS
VL: EIVMTQFPATLSVSPGERVTLSCRASQSVSNNLAWYQQKPGQPPRLLIYDASTRATGVPAKFSGTGSGTEFTLSISSLQSEDFAVYYCQQYHNWPPSYSFGLGTKLEIK
B4: TCN-522 (3212_I12) (antibody, V domains shown)
VH: QVQLQQWGAGLLKPSETLSLTCTVSGGSLTDYSWNWIRQPPGKGLEWIGDTLHNGYTNYNPSLRGRVSISIDTSKNQVSLRLTSVTAADTALYYCARGSGGYGGFDYFGKLRTWDFWGQGTLVTVSS
VL: DIQLTQSPSSLSASVGDRVTITCRASQGIRNDLGWYQQKPGNAPKRLIFGASSLQSGVPSRFSGSGSGTEFTLTISSLQPEDFATYYCLQHNSYPYTFGQGTKLEIK
B5: TCN-534 (5249_B02) (antibody, V domains shown)
VH: QVQLVQSGAEVKKPGSSVKVSCRESGGTFNGYTITWVRQAPGQGLEWMGGIIPMMGTVNYAQKLQGRVTITTDYFTKTAYMDLNNLRSEDTAMYYCVKIRYTGQQLLWGQGTLVTVSS
VL: DIQMTQSPSTLSASIGDRVTITCRASQSIASWLAWYQQKPGKAPKLLIYEAVNLESGVPSRFSGSGSGTDFTLTISSLQPDDFATYFCQHYGTISQTFGGGTKVEIK
B6: TCN-535 (5246_P19) (antibody, V domains shown)
VH: QVQLVQSGSEVKKPGTSVKVSCTASGSVFTNYGISWVRQAPGQGLEWMGGIIPLFGAAKYAQKFQGRVTITADESTKTVYMELSRLTSKDTAIYFCAKAPRVYEYYFDQWGQGTPVTVSS
VL: EIVLTQSPGTLSLSPGERATLSCRASQSVSSSQLAWYQQKPGQAPRLIIYGASTRATGIPDRFSGSGSGTDFTLTIGRLEPEDFAVFFCQQYSTSPPTFGQGTKVDFK
B7: TCN-528 (5087_P17) (antibody, V domains shown)
VH: QVQLVQSGSEVKKPGASVKVSCKASGYTFTNYDINWIRQAPGQGLEWMGWINPNSGTTGSAQRFQGRVTITVDTSITTVYMELSSLRSDDTAIYYCARGRELLRLQHFLTDSQSERRDCFDPWGQGTLVTVSS
VL: DIQMTQSPSSLSASVGDRVTITCRANQDIGIYLNWYQQNPGKVPKLLLHGASSLQGGVPSRFSASGSGTDFTLTIHSLQPEDLATYYCQQSRRLPYTFGQGTRVELK
B8: TCN-527 (5086_C06) (antibody, V domains shown)
VH: QVQLQESGPGLVKPSETLSLNCAVSGGSISNYYWSWIRQPPGKGLEWIGYISYNGRPKYNPSLTSRVTISVDTSKDQFSLELRSVTAADTALYYCARETRFGELLSPYDAFEIWGQGTMVTVSS
VL: DIQMTQSPSSLSASVGDRVTMTCRASQNIRSYLNWYQQRPGTAPKLLIYAASTLHSGVPSRFSGGGSGTDFTLTINNLQPEDFASYYCQQSYDNPQTFGQGTKVEIK

How the values were obtained:
Details in all cases: remark: other sources report otherwise
[1] = biological target: T1, recombinant soluble homotrimeric HA of A/Wisconsin/67/05 (H3N2) (Influenza A virus A/Wisconsin/67/2005(H3N2)); assay: trimeric HA microarray, transfection supernatant set 2
[2] = biological target: T2, recombinant soluble homotrimeric HA of A/Hong Kong/1073/99 (H9N2) (Influenza A virus A/Hong Kong/1073/99 (H9N2)); assay: as above
[3] = biological target: T3, recombinant soluble homotrimeric HA of A/duck/Yangzhou/02/05 (H8N4) (Influenza A virus A/duck/Yangzhou/02/2005(H8N4)); assay: as above
[4] = biological target: T4, recombinant soluble homotrimeric HA of A/swine/Ontario/01911-2/99 (H4N6) (Influenza A virus A/Swine/Ontario/01911-2/99 (H4N6)); assay: as above
[5] = biological target: recombinant soluble homotrimeric HA of A/Hong Kong/2108/03 (H9N2) (Influenza A virus A/HK/2108/2003(H9N2)); assay: as above
[6] = biological target: T5, recombinant soluble homotrimeric HA of A/northern shoveler/California/HKWF115/07 (H6) (Influenza A virus A/northern shoveler/California/HKWF115/2007(H6N1)); assay: as above
[7] = biological target: recombinant soluble homotrimeric HA of A/Netherlands/219/03 (H7N7) (Influenza A virus A/Netherlands/219/03(H7N7)); assay: trimeric HA microarray, transfection supernatant set 4
[8] = biological target: T1, recombinant soluble homotrimeric HA of …; assay: as above
[9] = biological target: recombinant soluble homotrimeric HA of A/Vietnam/1203/04 (H5N1) (Influenza A virus A/VietNam/1203/2004(H5N1)); assay: as above
[10] = biological target: recombinant soluble homotrimeric HA of A/chicken/Vietnam/NCVD-016/08 (H5N1) (Influenza A virus A/chicken/Vietnam/NCVD-016/2008(H5N1)); assay: as above
[11] = biological target: T3, recombinant soluble homotrimeric HA of …; assay: as above
[12] = biological target: T4, recombinant soluble homotrimeric HA of …; assay: as above
[13] = biological target: recombinant soluble homotrimeric HA of A/California/4/09 (H1N1) (Influenza A virus A/California/04/2009(H1N1)); assay: as above
[14] = biological target: recombinant soluble homotrimeric HA of A/Japan/305/57 (H2N2) (Influenza A virus A/Japan/305/1957(H2N2)); assay: as above
[15] = biological target: recombinant soluble homotrimeric HA of A/Egypt/3300-NAMRU3/08 (H5N1) (Influenza A virus A/Egypt/3300-NAMRU3/2008(H5N1)); assay: as above
[16] = biological target: recombinant soluble homotrimeric HA of A/South Carolina/1/18 (H1N1) (Influenza A virus A/South Carolina/1/18 (H1N1)); assay: as above
[17] = biological target: T5, recombinant soluble homotrimeric HA of …; assay: as above
[18] = biological target: recombinant soluble homotrimeric HA of A/Anhui/1/05 (H5N1) (Influenza A virus A/Anhui/1/2005(H5N1)); assay: as above
[19] = biological target: T1, recombinant soluble homotrimeric HA of …; assay: trimeric HA microarray, transfection supernatant set 3
[20] = biological target: T2, recombinant soluble homotrimeric HA of …; assay: as above
[21] = biological target: T3, recombinant soluble homotrimeric HA of …; assay: as above
[22] = biological target: T4, recombinant soluble homotrimeric HA of …; assay: as above
[23] = biological target: T5, recombinant soluble homotrimeric HA of …; assay: as above
[24] = biological target: recombinant soluble homotrimeric HA of A/Indonesia/5/05 (H5N1) (Influenza A virus A/Indonesia/5/2005(H5N1)); assay: trimeric HA microarray, transfection supernatant set 4
[25] = biological target: recombinant soluble homotrimeric HA of A/Solomon Islands/3/06 (H1N1) (Influenza A virus A/Solomon Islands/3/2006(H1N1)); assay: as above

Row | Binder | Trimeric HA Binding: RLU [1] [RLU] | Trimeric HA Binding: RLU [3] [RLU] | Trimeric HA Binding: RLU [4] [RLU] | Trimeric HA Binding: RLU [5] [RLU] | Trimeric HA Binding: RLU [6] [RLU] | Trimeric HA Binding: RLU [7] [RLU] | Trimeric HA Binding: RLU [9] [RLU] | Trimeric HA Binding: RLU [10] [RLU] | Trimeric HA Binding: RLU [11] [RLU] | Trimeric HA Binding: RLU [13] [RLU] | Trimeric HA Binding: RLU [14] [RLU] | Trimeric HA Binding: RLU [15] [RLU] | Trimeric HA Binding: RLU [16] [RLU] | Trimeric HA Binding: RLU [17] [RLU] | Trimeric HA Binding: RLU [18] [RLU] | further results
1 | B1 | 23700 | 6280 | 2250 | 364 | 21900 | – | – | – | – | – | – | – | – | – | – | Trimeric HA Binding: RLU [2]: 49200 RLU
2 | B2 | – | – | – | – | – | 246 | 182 | 19 | 48 | 49 | 260 | 97 | 39 | 95 | 18 | Trimeric HA Binding: RLU [8]: 20600 RLU; Trimeric HA Binding: RLU [12]: 168 RLU
3 | B3 | – | – | – | – | – | – | – | – | – | – | – | – | – | – | – | Trimeric HA Binding: RLU [19]: 3050 RLU; Trimeric HA Binding: RLU [20]: 10200 RLU; Trimeric HA Binding: RLU [21]: 227 RLU; Trimeric HA Binding: RLU [22]: 123 RLU; Trimeric HA Binding: RLU [23]: 23500 RLU
4 | B4 | – | 1650 | – | 203 | 54400 | – | – | – | – | – | – | – | – | – | – | Trimeric HA Binding: RLU [2]: 11800 RLU
5 | B5 | – | – | – | – | – | 361 | 23700 | 11400 | 79 | 27000 | 14700 | 8310 | 11800 | 21300 | 20 | Trimeric HA Binding: RLU [12]: 264 RLU; Trimeric HA Binding: RLU [24]: 948 RLU; Trimeric HA Binding: RLU [25]: 60 RLU
6 | B6 | – | – | – | – | – | 159 | 25200 | 20900 | 428 | 25200 | 21500 | 25300 | 22400 | 18100 | 24 | Trimeric HA Binding: RLU [8]: 4450 RLU; Trimeric HA Binding: RLU [24]: 18200 RLU; Trimeric HA Binding: RLU [25]: 836 RLU
7 | B7 | 46000 | 19800 | 49200 | 33600 | 28400 | – | – | – | – | – | – | – | – | – | – | –
8 | B8 | 35800 | 17900 | 30100 | 25500 | 19300 | – | – | – | – | – | – | – | – | – | – | –
